Experimental data published in the domain aggregation screens of Martell et al. (2025).

Test: soluble fraction after stress (log2 fold change); higher = more stays soluble; pooled small domains, quantitative proteomics
Conditions: stress: pH 4
Summary of the method: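 Custom libraries of small protein domains were pooled and measured with high-throughput quantitative proteomics after pH 4 stress. The read-out is the fold change in the amount of each domain that stays soluble after the acid stress, taken as a measure of aggregation propensity. Fold changes are on a log2 scale, and higher values mean more of the domain stayed soluble.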

HMTSLAGIERFLASGAIAGVGEAMAHRLVQKFGKETLEIIEKKPSRLTEVAGVGKKTAAKIHASYMEK
soluble fraction (log2): 0.0893

HMKPSKTVYTTANLNLRNGASMSAAVYTSVSRGTALATTGRTTSGWTQITHRGRTLWASSKYLTTTTPP
soluble fraction (log2): 0.155

HMSNNENSILEKLNSFSGKKIKVSHTIGSLAARLDEYPKIKMWLYKRIRENSINEQAYKYLIFIIERKVR
soluble fraction (log2): -0.0495

HMKDNPNETFERIAGKITRTLRSGPVRIQQLDLLFSESAGKVVDVLRAMAENGEVLIKDDTIQLNGNN
soluble fraction (log2): -0.261

HMDNIEIGNRIREIRIKKNISVFELAYRTKTSQSHIYQIEGGSQNMSIELLFKIADTLETDPNTILGV
soluble fraction (log2): -2.25

HMIIYGLNPVKDFINLFPNKISTLFISKNKLSDSEMKSVVNINTVYVSDAELKRITGTTKHQSLAAEID
soluble fraction (log2): -0.721

HMPGPAEMPGWITARAKKLGGQITPEAARALAAEMGSDTEQASREIEKLLTYVDYRRPVEEEDVALLTA
soluble fraction (log2): 0.00808

HMKVQEVDYGTFLTMVDEGKVNQVDIENSKQITFNTKGDKNKVYITGQVNDPELVNRLYKAGVEFSQEIP
soluble fraction (log2): -0.674

HMDADRLSPREREMLQFIARGQSNKEIARALELAESTVKIHVQNMLRKLNLSSRVQAAVFAVENGLG
soluble fraction (log2): 0.302

HMGRTGTVVVSPSLNVRTGPWGEIIGSLYNGNKVEIIGSSGDWYQISFGGKTAYVHSDYVVDGG
soluble fraction (log2): -0.779

HMLAQISDEGAIGAVVARVLDAHPNEVARYHAGEEKVAKFLMGAAMRELRGKGDPAVVQRLLSEGLDARRV
soluble fraction (log2): 0.294

HMHDPLATLTPREHEVMSLMAEGRTNAAIAQALVIGTGAVEKNVTSIFQKLGLDDSGTDHRRVLAVLAWLQ
soluble fraction (log2): -1.18

HMSASEKLFEARKNLNIVNVLGKNPVDRYDIVKILKHGDHYHIYDSKGNEGITYTNPKSLYPEAEFGEYQG
soluble fraction (log2): -0.228

HMLNMTLGDRIRSRREELRMSQEELATRLGYKSRSTIAKIESGENDLTQSKIVAFAEALSTTARWLLDY
soluble fraction (log2): 0.0651

HMVSTGIMVVDGRGSVLQHNEAALRQLGVEVLTFESQVKEKLASEDFSVRETTAMLNGKKVRIIAFSDIR
soluble fraction (log2): -1.66

HMPQKSDLTMEEYNKLGLAGGSGSRKLREQVGIRLSVGYGNSKQFYNRLHTFGISLDELKTAVEEVKNG
soluble fraction (log2): 0.295

HMSEQVTMIDVEGKTETEAKKALEDLGLKVEITYESADAAAGTVIGQDVKAGSTVSEGSRVTLTVSGQ
soluble fraction (log2): -0.211

HMQNYLEFIGNELKALTSIPSPSGYTKDVAAYLMKTLSDMGYEPQLSNKGNVFVTIGGEGNPLVLAAHVD
soluble fraction (log2): -0.436

HMSRQAPIGHRIRGRRKDIGMTQNALAKAAGISPSYLNLIEHNRRSIGGGLLMRIAAILDIHPHTL
soluble fraction (log2): 0.0837

HMAVEETFTITWLDRDGTVLEVDENVLKGTMPSFDGHIPPHDGLEFKGWDPEVVPVEGDATYTATYKA
soluble fraction (log2): -0.454

HMKKGATVSGVIVEKTKKSLIIDLGAKTEGVVADKEFEFAIDFVKELKKGDEVKAIVISTDNDKGQVVLSL
soluble fraction (log2): ≥ 0.43

HMNIGIVSLAAVPMRKEPSDRAEMVNQILFGETFDVLEEQEKWTLVQLHHDAYQGWIDRKQWDYASGIAD
soluble fraction (log2): -1.3

HMDVALEALDESDGAVRLQFSGALQTYLNDSTTAASLEAISKTFRAFYEAAGRPVDTLEVYAAGEPVT
soluble fraction (log2): -0.42

HMLGYGEQEREAQKYLEMHTAFQADPSLQKMYLPENQYALISKVMEMTGIKNVKSYLTPPNEL
soluble fraction (log2): -0.236

HMVNPDAPAPLYIVNGKETDKNIALAIKPEDVQDVRIIKNTVALQVYGEKGKNGVVIINTKPGV
soluble fraction (log2): 0.0604

HMDDFGERLRKLRVAQDLTQQQLGEKLGVVPSTIGKYEKVKDSYPSIEVLIKLSDFFSVSTDYLLKG
soluble fraction (log2): -0.905

HMPNYIDAISALLTLKGVGDRKHASTMANILNLQYNSAKQKLDGKRGITLDEVKKVFQYFNEPF
soluble fraction (log2): -0.76

HMSIEIIEITSNSSPKNLSEIIDIDATQIVADLMGLGIMKAIDTPLENSEIEQLLEKYNLIAEFVE
soluble fraction (log2): -2.51

HMDPVILDINSVKALLGISNKADFMAELSRLVVTEGDKKMIIPLAKEVGIDNVAVYKRNEIENISNYK
soluble fraction (log2): -0.297

HMDGIIIPDVSGKSYAEAVATLNEKGFKVEKGEDAGSSLAKDLVSYTNPAAGNRAKSGATISVFVSTGANA
soluble fraction (log2): -0.0718

HMDFLKSVDLSKYSKVESLILSHLSKGDFDIDDFIRSFSLGTDEVTRAIVSLEIEGIILRKGNRIFRKKS
soluble fraction (log2): 0.0153

HMKVEFDAMDKRILELMAKEYDTVLMARHLPLTPIVIDVRKKRIREVLNLPDATDAEIVIEAKEKDII
soluble fraction (log2): -1.47

HMSLSEYLSAPVLEGQRNHALFSAVMQAREQGWDEWQIRTTIGAKAEADGLRHAEIAATIRSAMSREITP
soluble fraction (log2): -0.0425

HMGDVATVKLDNNGLLNMRKSDARGADIVARIPNGTVVQVLNRETEWTQVRYDGKEGYVMSSFLQFAE
soluble fraction (log2): 0.0427

HMNVTIGESIKNVINHYGTPIYSYNPNNQEKYYEFHTNKGVLVVTAIGKKNTGYVTRVSMTY
soluble fraction (log2): -0.175

HMTIGKIVNIIEGSYANVRSAPDQNSEPIGRAYPGDAFLVDPLGSSGDWVKVTYEGQSGFIFQAYISV
soluble fraction (log2): -1.28

HMGRSTQVPGVEKMTYSQAVQLLHDHGFRVDIRDSLYRDDIKPGHVIEQFPKAKSIVKPGRKIFLYINAV
soluble fraction (log2): 0.105
